The values that follow come from patent US20090186337A1 (INSTITUT NATIONAL DE LA RECHERCHE AGRONOMIQUE INRA, published 2009).

In experiment [1] the target is T1, N protein (nucleocapsid protein) of human RSV Long strain (human RSV Long strain, UniProt P03418 1-391).
T1 construct: also called native N protein
Nature of the experiment: coexpression in E. coli, copurification of N with the P fragment.

Experiment [2] addresses N protein deleted of 27 residues at the C-terminal end (human RSV Long strain, UniProt P03418 1-364). Kind of experiment: interaction of truncated N with P (method not detailed).
In experiment [3] the target is T2, N protein of the measles virus (measles virus strain Edmonston B, UniProt P0DXN6 1-525).
T2 sequence: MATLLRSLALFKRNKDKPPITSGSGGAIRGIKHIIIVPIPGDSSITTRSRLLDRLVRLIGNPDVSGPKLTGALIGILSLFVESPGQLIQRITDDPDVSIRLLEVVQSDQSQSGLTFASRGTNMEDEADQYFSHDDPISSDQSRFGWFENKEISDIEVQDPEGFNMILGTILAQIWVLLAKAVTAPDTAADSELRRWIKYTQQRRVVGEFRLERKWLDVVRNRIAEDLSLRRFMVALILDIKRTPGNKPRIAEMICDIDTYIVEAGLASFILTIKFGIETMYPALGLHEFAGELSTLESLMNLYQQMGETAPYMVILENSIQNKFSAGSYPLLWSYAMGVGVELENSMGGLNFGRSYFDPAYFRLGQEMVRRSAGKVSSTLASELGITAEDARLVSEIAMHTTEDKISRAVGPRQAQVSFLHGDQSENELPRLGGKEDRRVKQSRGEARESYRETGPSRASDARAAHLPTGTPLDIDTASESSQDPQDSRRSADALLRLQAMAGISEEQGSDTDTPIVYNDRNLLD
Nature of the experiment: coexpression in E. coli and copurification of N with the P fragment.

B1: protein P (fragment 161-241) fused to GST (other)
chain: SARDGIRDAMVGLREEMIEKIRTEALMTNDRLEAMARLRNEESEKMAKDTSDEVSLNPTSEKLNNLLEGNDSDNDLSLEDF
notes: not shown: GST carrier at the N end (from pGEX-4T-3) and the vector-encoded junction with the thrombin site
As to B1, in experiment [1], the binding result is “binds”.

B2: P protein (phosphoprotein) of human RSV Long strain (other)
chain: SARDGIRDAMVGLREEMIEKIRTEALMTNDRLEAMARLRNEESEKMAKDTSDEVSLNPTSEKLNNLLEGNDSDNDLSLEDF
In the case of B2, the binding result in experiment [2] is “no binding”.

B3: P protein of the measles virus deleted of its N-terminal part as far as residue 456 (inclusive) (other)
chain: GPASRSVIRSIIKSSRLEEDRKRYLMTLLDDIKGANDLAKFHQMLMKIIMK
notes: also called PΔ457N
With B3, in experiment [3], the binding result is recorded as “no binding”.
